The record followed here is publication PMC9639671 (DNA repair, 2022).

This assay has as its target S. cerevisiae Msh2-Msh6 (S. cerevisiae, UniProt P25847 1-964; Q03834 1-1242). Briefly: SPR. On the technique in general: SPR reads the build-up and loss of mass on a sensor chip optically.

Sequence of S. cerevisiae Msh2-Msh6 (P25847 whole entry, chain 1 of 2): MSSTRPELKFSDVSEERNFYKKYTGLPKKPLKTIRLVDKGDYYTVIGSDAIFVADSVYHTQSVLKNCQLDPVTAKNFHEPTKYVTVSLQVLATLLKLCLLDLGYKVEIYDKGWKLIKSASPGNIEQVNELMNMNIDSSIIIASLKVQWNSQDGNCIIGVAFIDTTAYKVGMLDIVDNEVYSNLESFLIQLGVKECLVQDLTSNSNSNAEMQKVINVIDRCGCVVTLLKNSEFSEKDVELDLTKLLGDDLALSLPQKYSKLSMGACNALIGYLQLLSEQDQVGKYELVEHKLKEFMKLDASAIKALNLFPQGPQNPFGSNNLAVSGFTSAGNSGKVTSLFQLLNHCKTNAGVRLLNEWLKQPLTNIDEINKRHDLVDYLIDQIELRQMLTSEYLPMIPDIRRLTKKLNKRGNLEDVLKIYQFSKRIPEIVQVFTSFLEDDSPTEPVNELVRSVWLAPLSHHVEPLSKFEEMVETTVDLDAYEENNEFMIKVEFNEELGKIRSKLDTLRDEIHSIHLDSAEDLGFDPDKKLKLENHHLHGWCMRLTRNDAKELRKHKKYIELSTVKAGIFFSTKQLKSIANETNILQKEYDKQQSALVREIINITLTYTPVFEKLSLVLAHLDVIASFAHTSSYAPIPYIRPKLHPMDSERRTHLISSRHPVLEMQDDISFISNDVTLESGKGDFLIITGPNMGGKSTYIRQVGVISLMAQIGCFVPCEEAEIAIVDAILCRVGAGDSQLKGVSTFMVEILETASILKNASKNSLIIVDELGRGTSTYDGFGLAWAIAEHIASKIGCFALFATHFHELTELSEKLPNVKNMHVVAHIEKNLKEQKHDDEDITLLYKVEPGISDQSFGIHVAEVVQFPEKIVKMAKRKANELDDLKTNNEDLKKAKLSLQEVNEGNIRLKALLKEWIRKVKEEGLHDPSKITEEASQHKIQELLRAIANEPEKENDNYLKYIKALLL
Sequence of S. cerevisiae Msh2-Msh6 (Q03834 whole entry, chain 2 of 2): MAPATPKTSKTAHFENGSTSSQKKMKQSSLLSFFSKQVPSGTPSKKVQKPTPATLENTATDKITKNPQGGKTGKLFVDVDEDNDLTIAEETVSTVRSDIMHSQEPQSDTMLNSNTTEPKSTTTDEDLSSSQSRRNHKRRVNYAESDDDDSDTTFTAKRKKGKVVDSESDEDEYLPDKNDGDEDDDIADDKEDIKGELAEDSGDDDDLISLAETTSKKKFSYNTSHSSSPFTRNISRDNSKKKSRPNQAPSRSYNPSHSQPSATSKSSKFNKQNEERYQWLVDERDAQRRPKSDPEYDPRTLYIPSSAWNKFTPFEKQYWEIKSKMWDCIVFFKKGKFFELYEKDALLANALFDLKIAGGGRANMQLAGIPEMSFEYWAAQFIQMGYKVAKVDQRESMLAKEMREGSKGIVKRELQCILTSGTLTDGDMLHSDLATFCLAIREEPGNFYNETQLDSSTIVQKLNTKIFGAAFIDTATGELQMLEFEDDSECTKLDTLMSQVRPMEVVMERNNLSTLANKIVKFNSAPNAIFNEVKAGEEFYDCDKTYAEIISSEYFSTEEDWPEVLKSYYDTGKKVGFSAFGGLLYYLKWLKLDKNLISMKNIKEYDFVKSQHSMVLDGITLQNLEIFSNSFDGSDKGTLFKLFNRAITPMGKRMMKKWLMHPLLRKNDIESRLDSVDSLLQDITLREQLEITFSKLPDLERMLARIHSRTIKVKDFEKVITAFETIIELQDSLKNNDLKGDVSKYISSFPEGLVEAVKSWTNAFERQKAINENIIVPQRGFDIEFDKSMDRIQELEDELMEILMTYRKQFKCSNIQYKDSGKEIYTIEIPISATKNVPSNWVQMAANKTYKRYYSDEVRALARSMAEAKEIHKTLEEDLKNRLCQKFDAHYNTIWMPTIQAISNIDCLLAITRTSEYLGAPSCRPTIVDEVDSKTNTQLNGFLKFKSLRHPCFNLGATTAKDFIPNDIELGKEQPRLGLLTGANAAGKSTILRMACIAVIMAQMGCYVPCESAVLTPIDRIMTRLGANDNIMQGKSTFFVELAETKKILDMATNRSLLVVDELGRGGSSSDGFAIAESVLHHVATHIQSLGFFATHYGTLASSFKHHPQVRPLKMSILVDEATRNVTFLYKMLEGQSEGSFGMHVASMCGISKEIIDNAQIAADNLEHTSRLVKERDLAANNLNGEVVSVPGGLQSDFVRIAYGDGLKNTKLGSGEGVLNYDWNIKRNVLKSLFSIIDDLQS

B1: wild-type S. cerevisiae Mlh1-Pms1 (complex)
chain 1: MSLRIKALDASVVNKIAAGEIIISPVNALKEMMENSIDANATMIDILVKEGGIKVLQITDNGSGINKADLPILCERFTTSKLQKFEDLSQIQTYGFRGEALASISHVARVTVTTKVKEDRCAWRVSYAEGKMLESPKPVAGKDGTTILVEDLFFNIPSRLRALRSHNDEYSKILDVVGRYAIHSKDIGFSCKKFGDSNYSLSVKPSYTVQDRIRTVFNKSVASNLITFHISKVEDLNLESVDGKVCNLNFISKKSISPIFFINNRLVTCDLLRRALNSVYSNYLPKGNRPFIYLGIVIDPAAVDVNVHPTKREVRFLSQDEIIEKIANQLHAELSAIDTSRTFKASSISTNKPESLIPFNDTIESDRNRKSLRQAQVVENSYTTANSQLRKAKRQENKLVRIDASQAKITSFLSSSQQFNFEGSSTKRQLSEPKVTNVSHSQEAEKLTLNESEQPRDANTINDNDLKDQPKKKQKLGDYKVPSIADDEKNALPISKDGYIRVPKERVNVNLTSIKKLREKVDDSIHRELTDIFANLNYVGVVDEERRLAAIQHDLKLFLIDYGSVCYELFYQIGLTDFANFGKINLQSTNVSDDIVLYNLLSEFDELNDDASKEKIISKIWDMSSMLNEYYSIELVNDGLDNDLKSVKLKSLPLLLKGYIPSLVKLPFFIYRLGKEVDWEDEQECLDGILREIALLYIPDMVPKVDTSDASLSEDEKAQFINRKEHISSLLEHVLFPCIKRRFLAPRHILKDVVEIANLPDLYKVFERC
chain 2: MTQIHQINDIDVHRITSGQVITDLTTAVKELVDNSIDANANQIEIIFKDYGLESIECSDNGDGIDPSNYEFLALKHYTSKIAKFQDVAKVQTLGFRGEALSSLCGIAKLSVITTTSPPKADKLEYDMVGHITSKTTTSRNKGTTVLVSQLFHNLPVRQKEFSKTFKRQFTKCLTVIQGYAIINAAIKFSVWNITPKGKKNLILSTMRNSSMRKNISSVFGAGGMRGLEEVDLVLDLNPFKNRMLGKYTDDPDFLDLDYKIRVKGYISQNSFGCGRNSKDRQFIYVNKRPVEYSTLLKCCNEVYKTFNNVQFPAVFLNLELPMSLIDVNVTPDKRVILLHNERAVIDIFKTTLSDYYNRQELALPKRMCSQSEQQAQKRLKTEVFDDRSTTHESDNENYHTARSESNQSNHAHFNSTTGVIDKSNGTELTSVMDGNYTNVTDVIGSECEVSVDSSVVLDEGNSSTPTKKLPSIKTDSQNLSDLNLNNFSNPEFQNITSPDKARSLEKVVEEPVYFDIDGEKFQEKAVLSQADGLVFVDNECHEHTNDCCHQERRGSTDTEQDDEADSIYAEIEPVEINVRTPLKNSRKSISKDNYRSLSDGLTHRKFEDEILEYNLSTKNFKEISKNGKQMSSIISKRKSEAQENIIKNKDELEDFEQGEKYLTLTVSKNDFKKMEVVGQFNLGFIIVTRKVDNKYDLFIVDQHASDEKYNFETLQAVTVFKSQKLIIPQPVELSVIDELVVLDNLPVFEKNGFKLKIDEEEEFGSRVKLLSLPTSKQTLFDLGDFNELIHLIKEDGGLRRDNIRCSKIRSMFAMRACRSSIMIGKPLNKKTMTRVVHNLSELDKPWNCPHGRPTMRHLMELRDWSSFSKDYEI
On to B1, for which the binding result is listed as “binds”.

B2: Mlh1-K54C-Pms1 mutant complex (complex, S. cerevisiae)
chain 1: MSLRIKALDASVVNKIAAGEIIISPVNALKEMMENSIDANATMIDILVKEGGICVLQITDNGSGINKADLPILCERFTTSKLQKFEDLSQIQTYGFRGEALASISHVARVTVTTKVKEDRCAWRVSYAEGKMLESPKPVAGKDGTTILVEDLFFNIPSRLRALRSHNDEYSKILDVVGRYAIHSKDIGFSCKKFGDSNYSLSVKPSYTVQDRIRTVFNKSVASNLITFHISKVEDLNLESVDGKVCNLNFISKKSISPIFFINNRLVTCDLLRRALNSVYSNYLPKGNRPFIYLGIVIDPAAVDVNVHPTKREVRFLSQDEIIEKIANQLHAELSAIDTSRTFKASSISTNKPESLIPFNDTIESDRNRKSLRQAQVVENSYTTANSQLRKAKRQENKLVRIDASQAKITSFLSSSQQFNFEGSSTKRQLSEPKVTNVSHSQEAEKLTLNESEQPRDANTINDNDLKDQPKKKQKLGDYKVPSIADDEKNALPISKDGYIRVPKERVNVNLTSIKKLREKVDDSIHRELTDIFANLNYVGVVDEERRLAAIQHDLKLFLIDYGSVCYELFYQIGLTDFANFGKINLQSTNVSDDIVLYNLLSEFDELNDDASKEKIISKIWDMSSMLNEYYSIELVNDGLDNDLKSVKLKSLPLLLKGYIPSLVKLPFFIYRLGKEVDWEDEQECLDGILREIALLYIPDMVPKVDTSDASLSEDEKAQFINRKEHISSLLEHVLFPCIKRRFLAPRHILKDVVEIANLPDLYKVFERC
chain 2: MTQIHQINDIDVHRITSGQVITDLTTAVKELVDNSIDANANQIEIIFKDYGLESIECSDNGDGIDPSNYEFLALKHYTSKIAKFQDVAKVQTLGFRGEALSSLCGIAKLSVITTTSPPKADKLEYDMVGHITSKTTTSRNKGTTVLVSQLFHNLPVRQKEFSKTFKRQFTKCLTVIQGYAIINAAIKFSVWNITPKGKKNLILSTMRNSSMRKNISSVFGAGGMRGLEEVDLVLDLNPFKNRMLGKYTDDPDFLDLDYKIRVKGYISQNSFGCGRNSKDRQFIYVNKRPVEYSTLLKCCNEVYKTFNNVQFPAVFLNLELPMSLIDVNVTPDKRVILLHNERAVIDIFKTTLSDYYNRQELALPKRMCSQSEQQAQKRLKTEVFDDRSTTHESDNENYHTARSESNQSNHAHFNSTTGVIDKSNGTELTSVMDGNYTNVTDVIGSECEVSVDSSVVLDEGNSSTPTKKLPSIKTDSQNLSDLNLNNFSNPEFQNITSPDKARSLEKVVEEPVYFDIDGEKFQEKAVLSQADGLVFVDNECHEHTNDCCHQERRGSTDTEQDDEADSIYAEIEPVEINVRTPLKNSRKSISKDNYRSLSDGLTHRKFEDEILEYNLSTKNFKEISKNGKQMSSIISKRKSEAQENIIKNKDELEDFEQGEKYLTLTVSKNDFKKMEVVGQFNLGFIIVTRKVDNKYDLFIVDQHASDEKYNFETLQAVTVFKSQKLIIPQPVELSVIDELVVLDNLPVFEKNGFKLKIDEEEEFGSRVKLLSLPTSKQTLFDLGDFNELIHLIKEDGGLRRDNIRCSKIRSMFAMRACRSSIMIGKPLNKKTMTRVVHNLSELDKPWNCPHGRPTMRHLMELRDWSSFSKDYEI
For B2, the binding result is given as “binds”.
